{
  "source": "paper PMC7508890",
  "key": {"[1]": {"biological_target": "recombinant hemagglutinin (HA) derived from A/Thailand/CU44/2006, wild type (influenza A virus A/Thailand/CU44/2006)", "assay": "SEC-MALS"}, "[2]": {"biological_target": "recombinant hemagglutinin (HA) derived from A/Thailand/CU44/2006, wild type (influenza A virus A/Thailand/CU44/2006)", "assay": "[…]; 20 mM Tris-HCl pH 8.0, 100 mM NaCl"}},
  "data": [
    {"substance": "recombinant hemagglutinin (HA) derived from A/Thailand/CU44/2006, wild type (natural protein)", "values": [
      {"measurement": "stoichiometry N", "setting": "[1]", "value": 9, "unit": "HA trimers"},
      {"measurement": "stoichiometry N", "setting": "[2]", "value": 3}
    ]}
  ]
}
